Read-outs that look alike come from different tables or passages of the source. No end group written: not given here.
Experiments:
[1] = molecular target: T1, enzyme I (phosphoenolpyruvate-protein phosphotransferase, EC 2.7.3.9) of the E. coli phosphotransferase system (E. coli, UniProt P08839 1-575); assay: cell-based or functional assay
[2] = molecular target: T1, enzyme I (phosphoenolpyruvate-protein …); assay: cell-based or functional assay; remark: listed apart in the source

RIHFIPRRGR [peptide 20 RIHFIPRRGR]
inhibition IC50 [1]: 280 µM | uncoupling Pi/peptide (x IC50/h) [1]: 39.6 Pi/peptide (x IC50/h)

KISRHGKRGK [peptide 18 KISRHGKRGK]
inhibition IC50 [1]: 140 µM | uncoupling Pi/peptide (x IC50/h) [1]: 1.9 Pi/peptide (x IC50/h)

KGWHKRKK [peptide 6 KGWHKRKK]
inhibition IC50 [2]: 530 µM | uncoupling P;Ipeptide/h [2]: 0.23 Pi/peptide/h

WHKR [peptide 12 WHKR]
inhibition IC50 [2]: 4900 µM

RLHYLF [peptide 21 RLHYLF]
inhibition IC50 [1]: 375 µM | uncoupling Pi/peptide (x IC50/h) [1]: 64.2 Pi/peptide (x IC50/h)

RHWSIF [peptide 24 RHWSIF]
inhibition IC50 [1]: 400 µM

KKFHLRK [peptide 1 KKFHLRK]
inhibition IC50 [2]: 150 µM | uncoupling P;Ipeptide/h [2]: 0.49 Pi/peptide/h

KKWHKRKK [peptide 8 KKWHKRKK]
inhibition IC50 [2]: 440 µM | uncoupling P;Ipeptide/h [2]: 0.215 Pi/peptide/h

SGRKSTRVHHWLLVL (not fully specified (residue 11)) [peptide 15 SGRKSTRVHHWLLVL]
inhibition IC50 [1]: 60 µM | uncoupling Pi/peptide (x IC50/h) [1]: 6.6 Pi/peptide (x IC50/h)

KKFHIRKR [peptide 9 KKFHIRKR]
inhibition IC50 [2]: 160 µM | uncoupling P;Ipeptide/h [2]: 0.31 Pi/peptide/h

KKFDLRK [peptide 3 KKFDLRK]
inhibition IC50 [2]: 820 µM | uncoupling P;Ipeptide/h [2]: 0.05 Pi/peptide/h

Ac-MRLLKTLCFVGLCG (cysteine pairing not given here) [peptide 32 AcMRLLKTLCFVGLCG]
inhibition IC50 [1]: > 10000 µM

KKWHRRKK [peptide 7 KKWHRRKK]
inhibition IC50 [2]: 300 µM | uncoupling P;Ipeptide/h [2]: 0.29 Pi/peptide/h

Ac-DGARLHYLF [peptide 23 AcDGARLHYLF]
inhibition IC50 [1]: 7600 µM | uncoupling Pi/peptide (x IC50/h) [1]: 15.2 Pi/peptide (x IC50/h)

DGARLHYLF [peptide 22 DGARLHYLF]
inhibition IC50 [1]: 1200 µM | uncoupling Pi/peptide (x IC50/h) [1]: 132 Pi/peptide (x IC50/h)

RHRTLF [peptide 25 RHRTLF]
inhibition IC50 [1]: 410 µM

RHITLF [peptide 28 RHITLF]
inhibition IC50 [1]: 1380 µM

RHYLLF [peptide 26 RHYLLF]
inhibition IC50 [1]: 500 µM

MRLLKTLCFGLCG [peptide 31 MRLLKTLCFGLCG]
inhibition IC50 [1]: 3500 µM

RHITSL [peptide 27 RHITSL]
inhibition IC50 [1]: 650 µM

MSRHRN [peptide 29 MSRHRN]
inhibition IC50 [1]: 760 µM | uncoupling Pi/peptide (x IC50/h) [1]: 144 Pi/peptide (x IC50/h)

Ac-WHKR [peptide 13 Ac-WHKR]
inhibition IC50 [2]: 5800 µM

KISRHGRPTG [peptide 19 KISRHGRPTG]
inhibition IC50 [1]: 1060 µM | uncoupling Pi/peptide (x IC50/h) [1]: 479 Pi/peptide (x IC50/h)

GLRFGKTRVHYLVLG [peptide 14 GLRFGKTRVHYLVLG]
inhibition IC50 [1]: 25 µM | uncoupling Pi/peptide (x IC50/h) [1]: 3.2 Pi/peptide (x IC50/h)

KKWHLRKR [peptide 5 KKWHLRKR]
inhibition IC50 [2]: 30 µM | uncoupling P;Ipeptide/h [2]: 0.3 Pi/peptide/h

KMSRHRKPGA [peptide 16 KMSRHRKPGA]
inhibition IC50 [1]: 100 µM | uncoupling Pi/peptide (x IC50/h) [1]: 22.2 Pi/peptide (x IC50/h)
